# From article PMC3561135
# Key:
# Assay in all cases: SEC; size exclusion chromatography of the purified six-His-tagged recombinant proteins; data not shown; conditions not given
# [1] = target: Schistosoma mansoni phytochelatin synthase, full length protein (PCS1-591) (Schistosoma mansoni)
# [2] = target: Schistosoma mansoni phytochelatin synthase, N- and C-truncated form (PCS66-300) (Schistosoma mansoni)
# [3] = target: Schistosoma mansoni phytochelatin synthase, N-truncated protein (PCS66-591) (Schistosoma mansoni)
substance,measurement,setting,value
"Schistosoma mansoni phytochelatin synthase, full length protein (PCS1-591) (enzyme)",stoichiometry N,[1],2
"Schistosoma mansoni phytochelatin synthase, N- and C-truncated form (PCS66-300) (domain or fragment)",stoichiometry N,[2],2
"Schistosoma mansoni phytochelatin synthase, N-truncated protein (PCS66-591) (domain or fragment)",stoichiometry N,[3],2
